According to paper PMC8789047 (Nucleic Acids Research, 2021):

B1: AAR2-His (natural protein)
chain: MAAVQMDPELAKRLFFEGATVVILNMPKGTEFGIDYNSWEVGPKFRGVKMIPPGIHFLHYSSVDKANPKEVGPRMGFFLSLHQRGLTVLRWSTLREEVDLSPAPESEVEAMRANLQELDQFLGPYPYATLKKWISLTNFISEATVEKLQPENRQICAFSDVLPVLSMKHTKDRVGQNLPRCGIECKSYQEGLARLPEMKPRAGTEIRFSELPTQMFPEGATPAEITKHSMDLSYALETVLNKQFPSSPQDVLGELQFAFVCFLLGNVYEAFEHWKRLLNLLCRSEAAMMKHHTLYINLISILYHQLGEIPADFFVDIVSQDNFLTSTLQVFFSSACSIAVDATLRKKAEKFQAHLTKKFRWDFAAEPEDCAPVVVELPEGIEMG
B2: 6xHis-AAR2-Strep II (natural protein)
chain: MAAVQMDPELAKRLFFEGATVVILNMPKGTEFGIDYNSWEVGPKFRGVKMIPPGIHFLHYSSVDKANPKEVGPRMGFFLSLHQRGLTVLRWSTLREEVDLSPAPESEVEAMRANLQELDQFLGPYPYATLKKWISLTNFISEATVEKLQPENRQICAFSDVLPVLSMKHTKDRVGQNLPRCGIECKSYQEGLARLPEMKPRAGTEIRFSELPTQMFPEGATPAEITKHSMDLSYALETVLNKQFPSSPQDVLGELQFAFVCFLLGNVYEAFEHWKRLLNLLCRSEAAMMKHHTLYINLISILYHQLGEIPADFFVDIVSQDNFLTSTLQVFFSSACSIAVDATLRKKAEKFQAHLTKKFRWDFAAEPEDCAPVVVELPEGIEMG
B5: Strep II-ECD (natural protein)
chain: MEETMKLATMEDTVEYCLFLIPDESRDSDKHKEILQKYIERIITRFAPMLVPYIWQNQPFNLKYKPGKGGVPAHMFGVTKFGDNIEDEWFIVYVIKQITKEFPELVARIEDNDGEFLLIEAADFLPKWLDPENSTNRVFFCHGELCIIPAPRKSGAESWLPTTPPTIPQALNIITAHSEKILASESIRAAVNRRIRGYPEKIQASLHRAHCFLPAGIVAVLKQRPRLVAAAVQAFYLRDPIDLRACRVFKTFLPETRIMTSVTFTKCLYAQLVQQRFVPDRRSGYRLPPPSDPQYRAHELGMKLAHGFEILCSKCSPHFSDCKKSLVTASPLWASFLESLKKNDYFKGLIEGSAQYRERLEMAENYFQLSVDWPESSLAMSPGEEILTLLQTIPFDIEDLKKEAANLPPEDDDQWLDLSPDQLDQLLQEAVGKKESESVSKEEKEQNYDLTEVSESMKAFISKVSTHKGAELPREPSEAPITFDADSFLNYFDKILGPRPNESDSDDLDDEDFECLDSDDDLDFETHEPGEEASLKGTLDNLKSYMAQMDQELAHTCISKSFTTRNQVEPVSQTTDNNSDEEDSGTGESVMAPVDVDLNLVSNILESYSSQAGLAGPASNLLQSMGVQLPDNTDHRPTSKPTKN

Experiments:
Strep II-ECD = biological target: B5; assay: pull-down
RUVBL1–RUVBL2 complex = RUVBL1–RUVBL2 complex (human, UniProt Q9Y265;Q9Y230); assay: pull-down
RUVBL1 [1] = biological target: T1, RUVBL1 (human, UniProt Q9Y265 1-456); assay: pull-down
[2] = biological target: His-RUVBL1–RUVBL2 complex (human, UniProt Q9Y265;Q9Y230); assay: pull-down
RUVBL2 [3] = biological target: T2, RUVBL2 (human, UniProt Q9Y230 1-463); assay: pull-down
AAR2-His = biological target: B1; assay: pull-down
PRPF8-Flag = PRPF8-Flag (human, UniProt Q6P2Q9 1-2335); assay: pull-down
6xHis-AAR2-Strep II = biological target: B2; assay: pull-down
RUVBL1 [4] = biological target: T1, RUVBL1; assay: cross-linking
RUVBL2 [5] = biological target: T2, RUVBL2; assay: cross-linking

Measured: binding result

B1
binds: Strep II-ECD

B2
binds: RUVBL1–RUVBL2 complex

B3: GST-ZNHIT2ΔC (domain or fragment)
chain: MEPAGPCGFCPAGEVQPARYTCPRCNAPYCSLRCYRTHGTCAENFYRDQVLGELRGCSAPPSRLASALRRLRQQRETEDEPGEAGLSSGPAPGGLSGLWERLAPGEKAAFERLLSRGEAGRLLPPWRPWWWNRGAGPQLLEELDNAPGSDAAELELAPARTPPDSVKDASAAEPAAAERVLGDVPGACTPVVPTRIPAIVSLSRGPVSPLVRFQLPNVLFAYAHTLALYHGGDDALLSDFCATLLGVSGALGAQQVFASAEEALQAAAHVLEAGEHPPGPLGTRGAMHEVARILLGEGPTNQKGYTLAALGDLAQTLGRARKQAVAREERDHLYRARKKCQFLLAWTNENEAALTPLALDCARAHQAHAVVAEEV
binds: RUVBL1 [1] | RUVBL1–RUVBL2 complex | Strep II-ECD | [2] | RUVBL2 [3]

B4: ZNHIT2ΔC (domain or fragment)
chain: MEPAGPCGFCPAGEVQPARYTCPRCNAPYCSLRCYRTHGTCAENFYRDQVLGELRGCSAPPSRLASALRRLRQQRETEDEPGEAGLSSGPAPGGLSGLWERLAPGEKAAFERLLSRGEAGRLLPPWRPWWWNRGAGPQLLEELDNAPGSDAAELELAPARTPPDSVKDASAAEPAAAERVLGDVPGACTPVVPTRIPAIVSLSRGPVSPLVRFQLPNVLFAYAHTLALYHGGDDALLSDFCATLLGVSGALGAQQVFASAEEALQAAAHVLEAGEHPPGPLGTRGAMHEVARILLGEGPTNQKGYTLAALGDLAQTLGRARKQAVAREERDHLYRARKKCQFLLAWTNENEAALTPLALDCARAHQAHAVVAEEV
binds: Strep II-ECD | AAR2-His | PRPF8-Flag | 6xHis-AAR2-Strep II | RUVBL1 [4] | RUVBL2 [5]

B5
binds: RUVBL1–RUVBL2 complex | PRPF8-Flag

B6: GST-ZNHIT2-C (domain or fragment)
chain: GPVSPLVRFQLPNVLFAYAHTLALYHGGDDALLSDFCATLLGVSGALGAQQVFASAEEALQAAAHVLEAGEHPPGPLGTRGAMHEVARILLGEGPTNQKGYTLAALGDLAQTLGRARKQAVAREERDHLYRARKKCQFLLAWTNENEAALTPLALDCARAHQAHAVVAEEV
binds: RUVBL1 [1] | RUVBL1–RUVBL2 complex | RUVBL2 [3]
